Measured values taken from patent US20260021168A1.

How the values were obtained:
[1] = biological target: alemtuzumab (Campath, anti-CD52, Genzyme), intact IgG; assay: cell-based or functional assay
[2] = biological target: Thymoglobulin (Genzyme), rabbit anti-thymocyte globulin; assay: cell-based or functional assay
[3] = biological target: ATGAM (equine Anti-thymocyte Globulin); assay: cell-based or functional assay
[4] = biological target: endogenous human serum IgG

| Molecule | block of the cytotoxic effect of alemtuzumab on CD3-positive T-cells in whole blood, flow cytometry [1] | imlifidase concentration sufficient for cleavage in whole blood (SDS-PAGE of plasma, CD3+ flow cytometry) [1] | cleavage of 50 µg/mL rATG in sera of imlifidase-treated subjects, SDS-PAGE and Western blot [2] | cytotoxic activity of ATGAM in whole blood after imlifidase treatment, CD3+ flow cytometry [3] | imlifidase concentration sufficient for cleavage in whole blood (SDS-PAGE of plasma) [4] |
| --- | --- | --- | --- | --- | --- |
| imlifidase (IdeS, Immunoglobulin G-degrading enzyme of S. pyogenes) | 1.9 µg/mL | 4 µg/mL | 0.5 µg/mL | > 30 µg/mL |  |
| imlifidase (IdeS, Immunoglobulin G-degrading enzyme of S. pyogenes) (protein) DSFSANQEIRYSEVTPYHVTSVWTKGVTPPANFTQGEDVFHAPYVANQGWYDITKTFNGKDDLLCGAATAGNMLHWWFDQNKDQIKRYLEEHPEKQKINFNGEQMFDVKEAIDTKNHQLDSKLFEYFKEKAFPYLSTKHLGVFPDHVIDMFINGYRLSLTNHGPTPVKEGSKDPRGGIFDAVFTRGDQSKLLTSRHDFKEKNLKEISDLIKKELTEGKALGLSHTYANVRINHVINLWGADFDSNGNLKAIYVTDSDSNASIGMKKYFVGVNSAGKVAISAKEIKEDNIGAQVLGLFTLSTGQDSWNQTN |  |  |  |  | a concentration of approx. 4 µg/mL imlifidase is sufficient to cleave all serum IgG and 100 µg/mL alemtuzumab |
